Measurements: US20120277142A1 (HANALL BIOPHARMA, published 2012)

Biological target: T1, TNF-α (UniProt P01375 77-233, limits assumed)
T1 construct: also called tumor necrosis factor; ligand
Test: competition ELISA: sample vs plate-bound TNFRI190 for TNF-α, from IC50, relative to wild-type TNFRI126
Procedure: (§1) Each well was washed three times with 300 μL of washing buffer (0.05% Tween-20, PBS, pH 7.4) and incubated at room temperature for 2 hours with 300 μL of a blocking buffer (5% skim milk, PBS, pH 7.4). Then, each well was washed as mentioned above. A sample of interest was diluted to concentrations of 500 nM, 125 nM, 31 nM, 7.8 nM, 1.9 nM, 0.48 nM, 0.12 nM, and 0.03 nM in series and loaded in an amount of 100 μL into each well in duplicate. To each well was added 100 μL of 50 ng/ml TNF-α, followed by incubation at room temperature for 2 hours. After the wells were washed with a washing buffer, 100 μg/mL anti-TNF-α antibody solution was diluted 1/1000, added in an amount of 100 μL per each well, and incubated at room temperature for 2 hours. After the plates were washed with a washing buffer, a substrate was added in an amount of 100 μL to each well and reacted at room temperature for 15 min. In each well, 100 μL of the substrate 3,3′,5,5′-tetramethylbenzidine (RnD, Cat. No: DY999) was reacted at room temperature for 15 min, followed by adding 50 μL of 1.0 M sulfuric acid (Samchun Chemical, Cat. No: 52129) to each well to stop the reaction.
Affinity of Met-TNFRI and Met-TNFRI mutants for TNF-α was determined by measuring an absorbance change with concentration and evaluating IC₅₀ value by measuring an absorbance change with concentration.

T1 sequence (P01375 77-233 limits assumed): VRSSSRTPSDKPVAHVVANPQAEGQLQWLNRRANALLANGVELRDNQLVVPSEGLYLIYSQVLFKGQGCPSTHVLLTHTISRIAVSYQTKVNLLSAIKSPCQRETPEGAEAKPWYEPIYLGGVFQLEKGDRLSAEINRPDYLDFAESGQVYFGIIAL

Row | Affinity (%) | Binder
1 | 682 | TNFRI126-A25 (receptor, Met-TNFRI126 mutant made in E. coli) MDSVCPQGKYIHPQNNSICCTKCHKGTYLYNDCPGPGQDTDCRECESGSFTAIPNFLFACLSCSKCRKEMGQVEISSCTVDRDTVCGCRKNQYRHYWSENLFQCFNCSLCLNGTVHLSCQEKQNTVC
2 | 1400 | TNFRI126-A21 (receptor, Met-TNFRI126 mutant made in E. coli) MDSVCPQGKYIHPQNNSICCTKCHKGTYLYNDCPGPGQDTDCRECESGSFTAIENFLPGCLSCSKCRKEMGQVEISSCTVDRDTVCGCRKNQYRHYWSENLFQCFNCSLCLNGTVHLSCQEKQNTVC
3 | 765 | TNFRI126-A14 (receptor, Met-TNFRI126 mutant made in E. coli) MDSVCPQGKYIHPQNNSICCTKCHKGTYLYNDCPGPGQDTDCRECESGSFTATENFLPACLSCSKCRKEMGQVEISSCTVDRDTVCGCRKNQYRHYWSENLFQCFNCSLCLNGTVHLSCQEKQNTVC
4 | 1010 | TNFRI126-A18 (receptor, Met-TNFRI126 mutant made in E. coli) MDSVCPQGKYIHPQNNSICCTKCHKGTYLYNDCPGPGQDTDCRECESGSFTAHENFLPACLSCSKCRKEMGQVEISSCTVDRDTVCGCRKNQYRHYWSENLFQCFNCSLCLNGTVHLSCQEKQNTVC
5 | 782 | TNFRI126-A20 (receptor, Met-TNFRI126 mutant made in E. coli) MDSVCPQGKYIHPQNNSICCTKCHKGTYLYNDCPGPGQDTDCRECESGSFTAEENFLPACLSCSKCRKEMGQVEISSCTVDRDTVCGCRKNQYRHYWSENLFQCFNCSLCLNGTVHLSCQEKQNTVC
6 | 941 | TNFRI126-A15 (receptor, Met-TNFRI126 mutant made in E. coli) MDSVCPQGKYIHPQNNSICCTKCHKGTYLYNDCPGPGQDTDCRECESGSFTAYENFLPACLSCSKCRKEMGQVEISSCTVDRDTVCGCRKNQYRHYWSENLFQCFNCSLCLNGTVHLSCQEKQNTVC
7 | 435 | TNFRI126-A29 (receptor, Met-TNFRI126 mutant made in E. coli) MDSVCPQGKYIHPQNNSICCTKCHKGTYLYNDCPGPGQDTDCRECESGSFTAIPNFLFGCLSCSKCRKEMGQVEISSCTVDRDTVCGCRKNQYRHYWSENLFQCFNCSLCLNGTVHLSCQEKQNTVC
8 | 771 | TNFRI126-A17 (receptor, Met-TNFRI126 mutant made in E. coli) MDSVCPQGKYIHPQNNSICCTKCHKGTYLYNDCPGPGQDTDCRECESGSFTARENFLPACLSCSKCRKEMGQVEISSCTVDRDTVCGCRKNQYRHYWSENLFQCFNCSLCLNGTVHLSCQEKQNTVC
9 | 941 | TNFRI126-A9 (receptor, Met-TNFRI126 mutant made in E. coli) MDSVCPQGKYIHPQNNSICCTKCHKGTYLYNDCPGPGQDTDCRECESGSFTAMENFLPACLSCSKCRKEMGQVEISSCTVDRDTVCGCRKNQYRHYWSENLFQCFNCSLCLNGTVHLSCQEKQNTVC
10 | 1140 | TNFRI126-A26 (receptor, Met-TNFRI126 mutant made in E. coli) MDSVCPQGKYIHPQNNSICCTKCHKGTYLYNDCPGPGQDTDCRECESGSFTAIPNFLPGCLSCSKCRKEMGQVEISSCTVDRDTVCGCRKNQYRHYWSENLFQCFNCSLCLNGTVHLSCQEKQNTVC
11 | 324 | TNFRI126-A1 (receptor, Met-TNFRI126 mutant made in E. coli) MDSVCPQGKYIHPQNNSICCTKCHKGTYLYNDCPGPGQDTDCRECESGSFTASENFLPACLSCSKCRKEMGQVEISSCTVDRDTVCGCRKNQYRHYWSENLFQCFNCSLCLNGTVHLSCQEKQNTVC
12 | 600 | TNFRI126-A7 (receptor, Met-TNFRI126 mutant made in E. coli) MDSVCPQGKYIHPQNNSICCTKCHKGTYLYNDCPGPGQDTDCRECESGSFTAPENFLPACLSCSKCRKEMGQVEISSCTVDRDTVCGCRKNQYRHYWSENLFQCFNCSLCLNGTVHLSCQEKQNTVC
13 | 524 | TNFRI126-A4 (receptor, Met-TNFRI126 mutant made in E. coli) MDSVCPQGKYIHPQNNSICCTKCHKGTYLYNDCPGPGQDTDCRECESGSFTAAENFLPACLSCSKCRKEMGQVEISSCTVDRDTVCGCRKNQYRHYWSENLFQCFNCSLCLNGTVHLSCQEKQNTVC
14 | 952 | TNFRI126-A30 (receptor, Met-TNFRI126 mutant made in E. coli) MDSVCPQGKYIHPQNNSICCTKCHKGTYLYNDCPGPGQDTDCRECESGSFTAIPNFLPACLSCSKCRKEMGQVEISSCTVDRDTVCGCRKNQYRHYWSENLFQCFNCSLCLNGTVHLSCQEKQNTVC
15 | 659 | TNFRI126-A12 (receptor, Met-TNFRI126 mutant made in E. coli) MDSVCPQGKYIHPQNNSICCTKCHKGTYLYNDCPGPGQDTDCRECESGSFTANENFLPACLSCSKCRKEMGQVEISSCTVDRDTVCGCRKNQYRHYWSENLFQCFNCSLCLNGTVHLSCQEKQNTVC
16 | 1430 | TNFRI126-A22 (receptor, Met-TNFRI126 mutant made in E. coli) MDSVCPQGKYIHPQNNSICCTKCHKGTYLYNDCPGPGQDTDCRECESGSFTAMENFLPGCLSCSKCRKEMGQVEISSCTVDRDTVCGCRKNQYRHYWSENLFQCFNCSLCLNGTVHLSCQEKQNTVC

The remaining lines, values behind:

Row | Binder | Affinity (%)
17 | TNFRI126-A2 (receptor, Met-TNFRI126 mutant made in E. coli) MDSVCPQGKYIHPQNNSICCTKCHKGTYLYNDCPGPGQDTDCRECESGSFTAIENFLPACLSCSKCRKEMGQVEISSCTVDRDTVCGCRKNQYRHYWSENLFQCFNCSLCLNGTVHLSCQEKQNTVC | 829
18 | TNFRI126-A8 (receptor, Met-TNFRI126 mutant made in E. coli) MDSVCPQGKYIHPQNNSICCTKCHKGTYLYNDCPGPGQDTDCRECESGSFTAFENFLPACLSCSKCRKEMGQVEISSCTVDRDTVCGCRKNQYRHYWSENLFQCFNCSLCLNGTVHLSCQEKQNTVC | 865
19 | TNFRI126-A23 (receptor, Met-TNFRI126 mutant made in E. coli) MDSVCPQGKYIHPQNNSICCTKCHKGTYLYNDCPGPGQDTDCRECESGSFTAIPNFLLACLSCSKCRKEMGQVEISSCTVDRDTVCGCRKNQYRHYWSENLFQCFNCSLCLNGTVHLSCQEKQNTVC | 1100
20 | TNFRI126-A16 (receptor, Met-TNFRI126 mutant made in E. coli) MDSVCPQGKYIHPQNNSICCTKCHKGTYLYNDCPGPGQDTDCRECESGSFTAKENFLPACLSCSKCRKEMGQVEISSCTVDRDTVCGCRKNQYRHYWSENLFQCFNCSLCLNGTVHLSCQEKQNTVC | 882
21 | TNFRI126-A27 (receptor, Met-TNFRI126 mutant made in E. coli) MDSVCPQGKYIHPQNNSICCTKCHKGTYLYNDCPGPGQDTDCRECESGSFTAIPNFLLGCLSCSKCRKEMGQVEISSCTVDRDTVCGCRKNQYRHYWSENLFQCFNCSLCLNGTVHLSCQEKQNTVC | 894
22 | TNFRI126-A10 (receptor, Met-TNFRI126 mutant made in E. coli) MDSVCPQGKYIHPQNNSICCTKCHKGTYLYNDCPGPGQDTDCRECESGSFTAWENFLPACLSCSKCRKEMGQVEISSCTVDRDTVCGCRKNQYRHYWSENLFQCFNCSLCLNGTVHLSCQEKQNTVC | 800
23 | TNFRI126-A19 (receptor, Met-TNFRI126 mutant made in E. coli) MDSVCPQGKYIHPQNNSICCTKCHKGTYLYNDCPGPGQDTDCRECESGSFTADENFLPACLSCSKCRKEMGQVEISSCTVDRDTVCGCRKNQYRHYWSENLFQCFNCSLCLNGTVHLSCQEKQNTVC | 482
24 | TNFRI126-A3 (receptor, Met-TNFRI126 mutant made in E. coli) MDSVCPQGKYIHPQNNSICCTKCHKGTYLYNDCPGPGQDTDCRECESGSFTAGENFLPACLSCSKCRKEMGQVEISSCTVDRDTVCGCRKNQYRHYWSENLFQCFNCSLCLNGTVHLSCQEKQNTVC | 341
25 | TNFRI126-A24 (receptor, Met-TNFRI126 mutant made in E. coli) MDSVCPQGKYIHPQNNSICCTKCHKGTYLYNDCPGPGQDTDCRECESGSFTAIPNFLIACLSCSKCRKEMGQVEISSCTVDRDTVCGCRKNQYRHYWSENLFQCFNCSLCLNGTVHLSCQEKQNTVC | 1060
26 | TNFRI126-A13 (receptor, Met-TNFRI126 mutant made in E. coli) MDSVCPQGKYIHPQNNSICCTKCHKGTYLYNDCPGPGQDTDCRECESGSFTAQENFLPACLSCSKCRKEMGQVEISSCTVDRDTVCGCRKNQYRHYWSENLFQCFNCSLCLNGTVHLSCQEKQNTVC | 806
27 | TNFRI126-A5 (receptor, Met-TNFRI126 mutant made in E. coli) MDSVCPQGKYIHPQNNSICCTKCHKGTYLYNDCPGPGQDTDCRECESGSFTAVENFLPACLSCSKCRKEMGQVEISSCTVDRDTVCGCRKNQYRHYWSENLFQCFNCSLCLNGTVHLSCQEKQNTVC | 712
28 | TNFRI126-A6 (receptor, Met-TNFRI126 mutant made in E. coli) MDSVCPQGKYIHPQNNSICCTKCHKGTYLYNDCPGPGQDTDCRECESGSFTALENFLPACLSCSKCRKEMGQVEISSCTVDRDTVCGCRKNQYRHYWSENLFQCFNCSLCLNGTVHLSCQEKQNTVC | 741

Biological target: T1, TNF-α
Test: as above
Remark: another data set of the same source
Procedure: as §1
The affinity of the Met-TNFRI for TNF-α was assayed using the same procedure as in [Experimental Example 1]

Row | Relative Affinity for Ligand (%) | Binder
29 | 457 | TNFRI126-S31 (receptor, Met-TNFRI126 superlead mutant made in E. coli) MDSVCPQGKYIHPQNNSICCTKCHKGTYVYNDCPGPGQDTDCRECESGSFTAIENFLPACLSCSKCRKEMGQVEISSCTVDRDTVCGCRKNQYRHYWSENLFQCFNCSLCLNGTVHLSCQEKQNTVC
